Where two headings read alike, the source gives them in different places.
How the values were obtained:
[1] = target: F-actin (actin purified from chicken breast muscle) (chicken) (UniProt P68139); test: co-sedimentation
[2] = target: F-actin (actin purified from chicken breast muscle) (chicken) (UniProt P68139); test: co-sedimentation; remark: listed apart in the source

N-ethylmaleimide (NEM) modified skeletal muscle myosin subfragment 1 (S1) (domain or fragment)
percent of NEM-S1 left in the supernatant (not bound) [1]: 20% | percent of NEM-S1 left in the supernatant (not bound) [2]: 20%

Reference: article PMC3327287
